Molecular target: T1, murine OX40-human IgG Fc fusion (extracellular portion) (Mus musculus, UniProt P47741 20-211)
T1 sequence: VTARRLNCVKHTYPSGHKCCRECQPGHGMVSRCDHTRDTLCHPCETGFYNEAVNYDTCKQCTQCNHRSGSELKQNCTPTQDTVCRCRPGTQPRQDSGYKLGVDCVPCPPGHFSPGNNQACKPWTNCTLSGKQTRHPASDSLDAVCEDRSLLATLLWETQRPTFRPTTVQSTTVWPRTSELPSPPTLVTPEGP
Assay: filter binding

B1: aptamer 9.8PM (point mutant) (structured_RNA)
RNA: GGGAGGACGAUGCGGCAGUCUGCAUCGUAGGAUUAGCCACCGUAUACUUUCCCACCAGACGACUCGCUGAGGAUCCGAGA
modifications: 2'-fluoro pyrimidines, 2'-OH purines
binding result: no binding

From article PMC2525512
